Experimental findings from US20150147274A1 (CANCER RESEARCH TECHNOLOGY, published 2015) are described below.

Where a chain is given by its changes, count along the chain named.

Assay [1] concerns the target T1, MET928 (cMET protein derived from construct 25-928) (human, UniProt P08581 25-928).
T1 construct: MET ectodomain, residues 1-24 are the leader; produced in Lec 8 cells; background text says the ectodomain is furin-cleaved into alpha (25-307) and beta chains; biotinylated form used in selections; also called MET928 extracellular domain; Met extracellular domain
The experiment in a line: Biacore SPR, MET-928 on chip, Fab format. How it is done: (§1) The binding characteristics of 7A2 and its derivatives were measured using a GE Healthcare Biacore biosensor.
Background: Surface plasmon resonance follows binding to a sensor surface in real time, without labels.

The target in assay [2] is T1, MET928 (cMET protein derived from …). The experiment in a line: Biacore SPR, MET-928 on chip, scFv format. On the procedure:
as §1

For assay [3] the target is unchanged. Nature of the assay: ELISA, soluble scFv. In general terms: In an ELISA, binding on a coated surface is turned into a signal by an enzyme label.

T1 sequence (P08581 25-928): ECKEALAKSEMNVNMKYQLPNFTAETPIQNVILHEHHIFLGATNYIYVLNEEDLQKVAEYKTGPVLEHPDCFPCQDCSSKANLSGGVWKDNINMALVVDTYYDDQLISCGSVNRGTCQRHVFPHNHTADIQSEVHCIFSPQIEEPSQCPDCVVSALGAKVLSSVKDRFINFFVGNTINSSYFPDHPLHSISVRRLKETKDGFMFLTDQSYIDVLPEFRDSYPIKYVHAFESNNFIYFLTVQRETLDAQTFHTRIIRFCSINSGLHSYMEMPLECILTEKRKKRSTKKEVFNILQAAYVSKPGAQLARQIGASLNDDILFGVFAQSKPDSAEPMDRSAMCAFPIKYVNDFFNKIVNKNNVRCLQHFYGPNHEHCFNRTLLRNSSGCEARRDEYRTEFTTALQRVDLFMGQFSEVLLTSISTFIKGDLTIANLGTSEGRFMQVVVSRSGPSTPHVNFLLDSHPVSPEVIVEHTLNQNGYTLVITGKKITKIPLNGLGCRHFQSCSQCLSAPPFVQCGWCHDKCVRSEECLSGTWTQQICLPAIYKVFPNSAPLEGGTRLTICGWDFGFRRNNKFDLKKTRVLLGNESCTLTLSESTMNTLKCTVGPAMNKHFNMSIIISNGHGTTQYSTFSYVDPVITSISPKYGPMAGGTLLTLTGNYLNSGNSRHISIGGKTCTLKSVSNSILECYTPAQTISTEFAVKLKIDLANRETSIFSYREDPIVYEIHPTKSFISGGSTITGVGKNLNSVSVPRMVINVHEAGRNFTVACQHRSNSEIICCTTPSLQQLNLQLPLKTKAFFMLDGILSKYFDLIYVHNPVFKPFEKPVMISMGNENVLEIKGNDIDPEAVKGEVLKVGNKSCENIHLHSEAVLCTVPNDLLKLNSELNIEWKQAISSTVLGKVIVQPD

B1: 110_A06 Fab (His/tri-FLAG tagged, hinged) (Fab, V domains shown)
VH: QMQLVQSGAEVKKPGAPVKVSCKVSGYTFTDYYMHWVQQAPGKGLEWMGLVDPEDGETIYAEKFQGRVTITADTSTDTAYMELSSLRSEDTAVYYCATDATTPYWGMQLWGQGTLVTVSS
VL: DIQMTQSPSSLSASVGDRVTITCQASQDISNYLNWYQQKPGRAPKVLIYDASNLETGVPSRFSGSGSGTEFTLTISNLRPDDFATYYCQQGDSFPLTFGGGTKVEIK
notes: Fab from pBIOCAM7-3F, hinged, hexahistidine and tri-FLAG tags on the heavy chain
As usually defined, the Kd is the equilibrium constant for the complex coming apart. By koff is commonly meant the first-order rate constant of dissociation. A high value points to a short-lived complex. One may read the kon as a measure of how fast the partners come together. The low end stands for slower complex formation, the high end for faster complex formation. For the molecule B1, in assay [1], the equilibrium dissociation constant (Kd) worked out at 1.9 nM, the dissociation rate constant (koff) is 0.00128 s⁻¹ and the association rate constant (kon) was determined as 677000 M⁻¹ s⁻¹.

B2: 110_A10 Fab (His/tri-FLAG tagged, hinged) (Fab, V domains shown)
VH: B1 VH with L109T
VL: B1 VL
notes: as for B1
Regarding B2, in assay [1], binding was characterised by a dissociation constant (Kd) of 2.23 nM, the koff is 0.00168 s⁻¹ and the kon was 756000 M⁻¹ s⁻¹.

B3: 107_A01 scFv (6xHis/tri-Flag tags) (scFv)
scFv: QMQLVQSGAEVKKPGAPVKVSCKVSGYTFTDYYMHWVQQAPGKGLEWMGLVDPEDGETIYAEKFQGRVTITADTSTDTAYMELSSLRSEDTAVYYCATDATTPYWGMVSWGQGTLVTVSSLEGGGGSGGGGSGGGASDIQMTQSPSSLSASVGDRVTITCQASQDISNYLNWYQQKPGRAPKVLIYDASNLETGVPSRFSGSGSGTEFTLTISNLRPDDFATYYCQQGDSFPLTFGGGTKVEIK
notes: 7A2 derivative, only VH CDR3 changed; not shown: 6xHis/tri-FLAG tags of pSANG10-3F
In assay [2], B3 came in with a dissociation constant (Kd) of 0.0652 nM, a koff of 0.00321 s⁻¹ and an association rate constant (kon) of 4.92e+07 M⁻¹ s⁻¹.

B4: 112_H9 (scFv)
scFv: B3 scFv with G106F, M107P, V108Y
notes: not shown: 6xHis/tri-FLAG tags
Regarding B4, in assay [3], the binding result is recorded as “binds”.

B5: 112_G01 scFv (6xHis/tri-Flag tags) (scFv)
scFv: B3 scFv with V108W, S109H
notes: as for B4
Regarding B5, in assay [2], binding was put at a Kd of 0.786 nM, the koff turned out to be 0.00238 s⁻¹ and the kon was 3.03e+06 M⁻¹ s⁻¹.

B6: 111_E6 (scFv)
scFv: B3 scFv with V108A, S109V
notes: as for B4
As to B6, the binding result in assay [3] is recorded as “binds”.

B7: 112_G5 (scFv)
scFv: B3 scFv with V108R
notes: as for B4
In the case of B7, the binding result in assay [3] is “binds”.

B8: 112_G9 (scFv)
scFv: B3 scFv with V108Q, S109R
notes: as for B4
As for B8, the binding result in assay [3] is recorded as “binds”.

B9: 111_D06 scFv (6xHis/tri-Flag tags) (scFv)
scFv: B3 scFv with V108W, S109Q
notes: as for B3
In assay [2], B9 registered a Kd of 0.183 nM, a koff of 0.00549 s⁻¹ and a kon of 3.01e+07 M⁻¹ s⁻¹.

B10: 111_D7 (scFv)
scFv: B3 scFv with G106F, M107P, V108Y, S109A
notes: as for B4
On to B10, for which the binding result in assay [3] is given as “binds”.

B11: 112_F1 (scFv)
scFv: B3 scFv with V108A, S109R
notes: as for B4
In the case of B11, the binding result in assay [3] is on record as “binds”.

B12: 112_F12 (scFv)
scFv: B3 scFv with V108Q, S109W
notes: as for B4
For B12, in assay [3], the binding result is listed as “binds”.

B13: 112_H5 (scFv)
scFv: B3 scFv with V108Q, S109A
notes: as for B4
In the case of B13, the binding result in assay [3] is listed as “binds”.

B14: 112_G3 (scFv)
scFv: B3 scFv with V108S, S109A
notes: as for B4
In the case of B14, the binding result in assay [3] is “binds”.

B15: 112_G7 (scFv)
scFv: B3 scFv with G106F, M107P, V108Q, S109T
notes: as for B4
Take B15: the binding result in assay [3] is reported as “binds”.

B16: 112_F8 (scFv)
scFv: B3 scFv with G106T, M107P, V108F, S109L
notes: as for B4
Take B16: the binding result in assay [3] is “binds”.

B17: 112_H8 (scFv)
scFv: B3 scFv with G106L, M107P, V108L, S109Y
notes: as for B4
Take B17: the binding result in assay [3] is reported as “binds”.

B18: 111_E12 (scFv)
scFv: B3 scFv with G106S, M107P, V108W, S109V
notes: as for B4
For B18, the binding result in assay [3] is “binds”.

B19: 111_D11 (scFv)
scFv: B3 scFv with V108M, S109R
notes: as for B4
In the case of B19, the binding result in assay [3] is “binds”.

B20: 112_H12 (scFv)
scFv: B3 scFv with G106F, M107P, V108Y, S109K
notes: as for B4
Take B20: the binding result in assay [3] is “binds”.

B21: 112_G4 (scFv)
scFv: B3 scFv with M107A, V108Q
notes: as for B4
In the case of B21, the binding result in assay [3] is reported as “binds”.

B22: 111_E11 (scFv)
scFv: B3 scFv with V108R, S109E
notes: as for B4
B22: in assay [3], the binding result is recorded as “binds”.

B23: 111_D8 (scFv)
scFv: B3 scFv with V108S, S109W
notes: as for B4
On to B23, for which, in assay [3], the binding result is “binds”.

B24: 107_A07 scFv (6xHis/tri-Flag tags) (scFv)
scFv: B3 scFv with V108M, S109W
notes: as for B3
As for B24, in assay [2], the equilibrium dissociation constant (Kd) was found to be 0.346 nM, the off-rate (koff) turned out to be 0.00115 s⁻¹ and the kon is 3.31e+06 M⁻¹ s⁻¹.

B25: 111_E3 (scFv)
scFv: B3 scFv with G106F, M107P, S109E
notes: as for B4
Turning to B25, in assay [3], the binding result is recorded as “binds”.

B26: 111_E7 (scFv)
scFv: B3 scFv with V108M, S109M
notes: as for B4
Take B26: the binding result in assay [3] is “binds”.

B27: 111_E4 (scFv)
scFv: B3 scFv with M107I, V108E, S109V
notes: as for B4
Regarding B27, the binding result in assay [3] is “binds”.

B28: 111_E5 (scFv)
scFv: B3 scFv with V108C, S109E
notes: as for B4
B28: the binding result in assay [3] is on record as “binds”.

B29: 112_H6 (scFv)
scFv: B3 scFv with V108M, S109E
notes: as for B4
For B29, the binding result in assay [3] is given as “binds”.

B30: 112_H1 (scFv)
scFv: B3 scFv with M107A, V108A, S109V
notes: as for B4
As for B30, the binding result in assay [3] was “binds”.

B31: 112_H11 (scFv)
scFv: B3 scFv with G106F, M107P, V108Q, S109V
notes: as for B4
Turning to B31, in assay [3], the binding result is recorded as “binds”.

B32: 112_F4 (scFv)
scFv: B3 scFv with V108A, S109D
notes: as for B4
For the molecule B32, the binding result in assay [3] is on record as “binds”.

B33: 112_H7 (scFv)
scFv: B3 scFv with M107V, V108Q
notes: as for B4
For the molecule B33, in assay [3], the binding result is recorded as “binds”.

B34: 112_H4 (scFv)
scFv: B3 scFv with V108W, S109K
notes: as for B4
B34: the binding result in assay [3] is “binds”.

B35: 111_D5 (scFv)
scFv: B3 scFv with G106F, M107P, V108A, S109V
notes: as for B4
For the molecule B35, the binding result in assay [3] is “binds”.

B36: 107_A08 scFv (6xHis/tri-Flag tags) (scFv)
scFv: B3 scFv with S109E
notes: as for B3
In assay [2], B36 gave a Kd of 0.274 nM, a dissociation rate constant (koff) of 0.00691 s⁻¹ and a kon of 2.52e+07 M⁻¹ s⁻¹.

B37: 110_A10 scFv (6xHis/tri-Flag tags) (scFv)
scFv: B3 scFv with V108Q, S109T
notes: as for B3
For B37, in assay [2], the Kd stood at 0.301 nM, the off-rate constant (koff) turned out to be 0.00273 s⁻¹ and the kon came to 9.08e+06 M⁻¹ s⁻¹.

B38: 112_G11 (scFv)
scFv: B3 scFv with G106F, M107P, V108Y, S109T
notes: as for B4
Regarding B38, in assay [3], the binding result is given as “binds”.

B39: 111_E8 (scFv)
scFv: B3 scFv with G106F, M107P, V108Y, S109R
notes: as for B4
Consider B39, for which the binding result in assay [3] was “binds”.

B40: 111_E10 (scFv)
scFv: B3 scFv with G106Y, M107P, V108Y, S109A
notes: as for B4
As to B40, in assay [3], the binding result is listed as “binds”.

B41: 112_F11 (scFv)
scFv: B3 scFv with V108M, S109Q
notes: as for B4
Turning to B41, the binding result in assay [3] is “binds”.

B42: 112_H10 (scFv)
scFv: B3 scFv with M107I, V108R, S109K
notes: as for B4
B42: in assay [3], the binding result is listed as “binds”.

B43: 110_A01 scFv (6xHis/tri-Flag tags) (scFv)
scFv: B3 scFv with G106F, M107P, V108Y, S109L
notes: 7A2 derivative, only VH CDR3 changed; also called 110_A1; not shown: 6xHis/tri-FLAG tags of pSANG10-3F
In the case of B43, in assay [2], binding was put at a Kd of 0.322 nM, the off-rate constant (koff) is 0.00163 s⁻¹ and the association rate constant (kon) came out at 5.05e+06 M⁻¹ s⁻¹.

B44: 112_G6 (scFv)
scFv: B3 scFv with G106F, M107P, V108F, S109V
notes: as for B4
Turning to B44, in assay [3], the binding result is on record as “binds”.

B45: 110_A06 scFv (6xHis/tri-Flag tags) (scFv)
scFv: B3 scFv with V108Q, S109L
notes: 7A2 derivative, only VH CDR3 changed; also called 110_A6; not shown: 6xHis/tri-FLAG tags of pSANG10-3F
In assay [2], B45 had a Kd of 0.121 nM, an off-rate (koff) of 0.00417 s⁻¹ and a kon of 3.45e+07 M⁻¹ s⁻¹.

B46: 110_A12 scFv (6xHis/tri-Flag tags) (scFv)
scFv: B3 scFv with G106F, M107P, V108R, S109E
notes: as for B3
For B46, in assay [2], the Kd stood at 0.958 nM, the koff was found to be 0.00156 s⁻¹ and the association rate constant (kon) amounted to 1.63e+06 M⁻¹ s⁻¹.
